The text below walks through data of publication PMC5837818 (Molecular cell, 2018).

The target of this test is E. coli core RNAP enzyme (E. coli, UniProt P0A7Z4 1-329; P0A8V2 1-1342; P0A8T7 1-1407; P0A800 1-91). Briefly: fluorescence polarisation. (In fluorescence polarisation assays a small probe gives low polarisation when free and higher when bound to something large.)
Chain of E. coli core RNAP enzyme (P0A7Z4 whole entry, chain 1 of 4): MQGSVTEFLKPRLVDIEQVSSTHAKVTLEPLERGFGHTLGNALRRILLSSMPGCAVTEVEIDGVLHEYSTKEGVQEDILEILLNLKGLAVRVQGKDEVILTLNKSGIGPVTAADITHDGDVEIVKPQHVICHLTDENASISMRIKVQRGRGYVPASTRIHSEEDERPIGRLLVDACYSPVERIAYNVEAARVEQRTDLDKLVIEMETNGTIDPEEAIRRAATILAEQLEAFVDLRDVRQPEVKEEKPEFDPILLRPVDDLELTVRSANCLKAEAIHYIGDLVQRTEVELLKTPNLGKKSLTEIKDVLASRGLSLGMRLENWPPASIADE
Chain of E. coli core RNAP enzyme (P0A8V2 whole entry, chain 2 of 4): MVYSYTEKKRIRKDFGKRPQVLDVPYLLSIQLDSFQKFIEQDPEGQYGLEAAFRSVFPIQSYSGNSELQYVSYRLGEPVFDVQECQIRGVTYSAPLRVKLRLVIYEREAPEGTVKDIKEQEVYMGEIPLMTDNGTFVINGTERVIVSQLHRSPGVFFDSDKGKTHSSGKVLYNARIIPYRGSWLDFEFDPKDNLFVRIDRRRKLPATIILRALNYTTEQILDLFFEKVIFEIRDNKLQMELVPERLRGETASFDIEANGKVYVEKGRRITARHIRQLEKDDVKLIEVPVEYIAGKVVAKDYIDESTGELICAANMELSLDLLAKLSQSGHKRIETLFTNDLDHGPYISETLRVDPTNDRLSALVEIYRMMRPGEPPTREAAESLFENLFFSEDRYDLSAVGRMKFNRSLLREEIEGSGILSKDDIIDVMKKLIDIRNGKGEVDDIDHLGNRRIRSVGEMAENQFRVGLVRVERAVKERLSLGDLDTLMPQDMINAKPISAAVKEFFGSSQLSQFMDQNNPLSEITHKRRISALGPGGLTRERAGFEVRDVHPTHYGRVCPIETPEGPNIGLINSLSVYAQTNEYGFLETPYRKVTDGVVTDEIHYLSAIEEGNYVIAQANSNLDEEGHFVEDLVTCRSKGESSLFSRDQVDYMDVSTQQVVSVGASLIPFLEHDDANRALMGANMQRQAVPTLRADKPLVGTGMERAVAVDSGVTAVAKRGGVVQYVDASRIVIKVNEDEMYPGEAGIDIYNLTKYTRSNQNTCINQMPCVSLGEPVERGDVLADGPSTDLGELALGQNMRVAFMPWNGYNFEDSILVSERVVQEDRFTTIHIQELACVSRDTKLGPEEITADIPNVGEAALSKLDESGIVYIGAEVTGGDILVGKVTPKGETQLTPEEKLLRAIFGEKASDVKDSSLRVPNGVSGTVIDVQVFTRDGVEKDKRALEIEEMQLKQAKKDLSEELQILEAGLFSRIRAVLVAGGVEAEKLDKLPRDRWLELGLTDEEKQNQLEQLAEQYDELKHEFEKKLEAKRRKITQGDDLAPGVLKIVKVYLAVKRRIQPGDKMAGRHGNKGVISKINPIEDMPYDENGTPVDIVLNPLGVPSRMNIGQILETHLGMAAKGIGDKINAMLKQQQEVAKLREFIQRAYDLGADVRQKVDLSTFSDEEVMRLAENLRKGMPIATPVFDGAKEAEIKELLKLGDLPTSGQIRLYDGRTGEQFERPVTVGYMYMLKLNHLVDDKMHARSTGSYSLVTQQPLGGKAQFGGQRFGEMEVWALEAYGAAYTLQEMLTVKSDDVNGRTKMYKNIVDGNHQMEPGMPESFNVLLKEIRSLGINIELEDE
Chain of E. coli core RNAP enzyme (P0A8T7 whole entry, chain 3 of 4): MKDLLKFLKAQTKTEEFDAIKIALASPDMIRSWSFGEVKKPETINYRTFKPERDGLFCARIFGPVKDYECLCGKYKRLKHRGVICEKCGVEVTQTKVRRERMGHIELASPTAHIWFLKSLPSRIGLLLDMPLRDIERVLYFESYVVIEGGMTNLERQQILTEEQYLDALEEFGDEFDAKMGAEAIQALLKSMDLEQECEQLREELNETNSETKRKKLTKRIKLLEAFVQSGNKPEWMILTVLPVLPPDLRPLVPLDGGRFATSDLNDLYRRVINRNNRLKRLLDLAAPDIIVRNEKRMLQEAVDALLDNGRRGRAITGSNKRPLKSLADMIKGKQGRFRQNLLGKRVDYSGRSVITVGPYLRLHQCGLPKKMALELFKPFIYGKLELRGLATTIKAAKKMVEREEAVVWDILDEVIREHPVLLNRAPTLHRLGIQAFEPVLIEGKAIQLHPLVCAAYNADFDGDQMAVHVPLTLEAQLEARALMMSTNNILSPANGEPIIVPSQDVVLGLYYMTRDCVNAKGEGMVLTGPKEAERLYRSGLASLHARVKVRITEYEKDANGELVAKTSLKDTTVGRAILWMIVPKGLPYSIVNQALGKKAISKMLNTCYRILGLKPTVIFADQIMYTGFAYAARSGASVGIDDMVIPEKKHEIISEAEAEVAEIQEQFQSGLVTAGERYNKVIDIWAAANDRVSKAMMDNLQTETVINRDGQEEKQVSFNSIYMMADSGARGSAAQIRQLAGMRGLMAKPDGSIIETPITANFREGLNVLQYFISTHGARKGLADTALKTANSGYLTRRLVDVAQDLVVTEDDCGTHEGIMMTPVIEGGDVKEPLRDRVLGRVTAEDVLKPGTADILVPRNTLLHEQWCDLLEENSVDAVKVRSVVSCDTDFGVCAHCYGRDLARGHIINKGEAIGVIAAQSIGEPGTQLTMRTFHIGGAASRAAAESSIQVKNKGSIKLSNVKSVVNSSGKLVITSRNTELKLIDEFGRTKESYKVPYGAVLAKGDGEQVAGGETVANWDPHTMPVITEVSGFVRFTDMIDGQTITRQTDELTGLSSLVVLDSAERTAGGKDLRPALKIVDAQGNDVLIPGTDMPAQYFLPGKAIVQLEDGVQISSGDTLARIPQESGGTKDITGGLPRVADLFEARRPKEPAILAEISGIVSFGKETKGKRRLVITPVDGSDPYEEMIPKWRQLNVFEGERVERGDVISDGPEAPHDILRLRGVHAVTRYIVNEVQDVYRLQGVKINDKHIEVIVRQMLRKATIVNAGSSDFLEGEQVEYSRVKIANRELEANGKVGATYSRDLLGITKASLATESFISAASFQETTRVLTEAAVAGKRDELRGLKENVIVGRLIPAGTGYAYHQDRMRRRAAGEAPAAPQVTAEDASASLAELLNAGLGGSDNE
Chain of E. coli core RNAP enzyme (P0A800 whole entry, chain 4 of 4): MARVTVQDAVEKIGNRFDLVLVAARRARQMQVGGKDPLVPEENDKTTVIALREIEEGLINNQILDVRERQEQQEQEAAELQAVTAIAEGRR

B1: BODIPY FL-labelled DksA with a cysteine substitution at position 35 (A35C) (natural protein, E. coli)
chain: MQEGQNRKTSSLSILAIAGVEPYQEKPGEEYMNECQLAHFRRILEAWRNQLRDEVDRTVTHMQDEAANFPDPVDRAAQEEEFSLELRNRDRERKLIKKIEKTLKKVEDEDFGYCESCGVEIGIRRLEARPTADLCIDCKTLAEIREKQMAG
modifications: BODIPY FL (maleimide) conjugated to the cysteine at position 35
By Kd is commonly meant the equilibrium constant for the complex coming apart. Lower therefore signals tighter binding. As for B1, binding was put at a Kd of 0.112 µM.
